Experimental data published in patent US20140087995A1 (published 2014).
Numbered stars: 1 amine (or outer) side, 2 acyl side, 3 side chain; on linkers, the order of the positions; unused ones are H or OH. Bridge positions count the residues as written; N and C are the ends. Side chains are listed from the residue outwards. Ends that are not written are not given here. * marks the point of attachment. C20 diacid = O=C(O)CCCCCCCCCCCCCCCCCCC(=O)*; γGlu = O=C(O)[C@H](CCC(=O)[*:2])N[*:1]

T1: human amylin receptor (human, UniProt P30988 25-474; O60896 24-148, limits assumed)
T1 construct: whole, on cells; Used as cell membranes prepared from the Amylin 3(a)/CRE-luc BHK cells (Assay V); also called hAmylin-R; hAmylinR
T1 sequence (looked up) 1: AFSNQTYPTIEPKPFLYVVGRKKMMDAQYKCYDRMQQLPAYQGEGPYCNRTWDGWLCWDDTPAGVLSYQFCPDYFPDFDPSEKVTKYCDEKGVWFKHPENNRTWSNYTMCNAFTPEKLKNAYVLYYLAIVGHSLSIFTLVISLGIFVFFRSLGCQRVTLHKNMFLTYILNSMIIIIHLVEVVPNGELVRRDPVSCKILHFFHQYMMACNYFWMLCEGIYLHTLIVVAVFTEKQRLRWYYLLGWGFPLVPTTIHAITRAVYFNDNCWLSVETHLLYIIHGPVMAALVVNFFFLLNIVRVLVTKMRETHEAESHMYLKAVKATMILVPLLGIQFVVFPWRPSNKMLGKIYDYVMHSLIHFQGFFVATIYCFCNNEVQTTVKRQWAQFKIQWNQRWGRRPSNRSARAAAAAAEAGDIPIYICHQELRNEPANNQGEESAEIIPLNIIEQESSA
T1 sequence (looked up) 2: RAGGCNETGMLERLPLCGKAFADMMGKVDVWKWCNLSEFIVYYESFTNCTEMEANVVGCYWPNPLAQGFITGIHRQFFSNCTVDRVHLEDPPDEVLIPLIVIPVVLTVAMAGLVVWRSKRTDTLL


molecular target: T1, human amylin receptor; test: SPA competition vs 125I-rat amylin, membranes of amylin 3(a) receptor BHK cells (Assay V)
Method: The binding assay was performed using scintillation proximity assay (SPA) beads (RPNQ0001) from PerkinElmer and cell membranes from the Amylin 3(a)/CRE-luc cells (as described in Assay (II)) were used. Membranes were prepared in the following way; the cells were rinsed with PBS and incubated with Versene for approximately 5 min before harvesting. The cells were flushed with PBS and the cell-suspension was centrifuged for 5 min at 1000 rpm. Cells were homogenized (ultrathurrax) in a buffer containing 20 mM Na-HEPES and 10 mM EDTA (pH 7.4) and centrifuged at 20.000 rpm for 15 min. The resulting pellet was resuspended, homogenized and centrifuged (20.000 rpm, 15 min) in a buffer containing 20 mM Na-HEPES and 0.1 mM EDTA (pH 7.4, buffer 2). The resulting pellet was resuspended in buffer 2 and protein concentration was measured (BCA protein Assay, Pierce). The homogenate was kept cold during the whole procedure. The membranes were kept at −80° C. until use. The assay was performed in a 384 well Optiplate (PerkinElmer) in a total volume of 40 ul. Membranes were mixed with SPA beads. Final concentration of membranes 35 ng/μL final and SPA beads was 0.05 mg/well. Test-compounds were dissolved in DMSO and further diluted in assay buffer (50 mM Hepes, pH 7.4, 1 mM CaCl2, 5 mM MgCl₂, 0.1% OA and 0.02% Tween20). […] The final mixture was incubated with shaking at 400 rpm for 120 min at 25° C. prior to centrifugation (1500 rpm, 10 min). Samples were analyzed on TopCounter™ (Packard). The IC₅₀ was calculated using (one site binding competition analysis) GraphPad Prism5 as a measure of receptor affinity.

Binder	IC50 [pM]
K([γGlu-γGlu-C20 diacid])CNTATCATQRLAEFLRHSSPNFGAIPSSTNVGHETY-NH2 (disulfide 2-7; N-terminus assumed; SMILES CC[C@H](C)[C@H](NC(=O)[C@H](C)NC(=O)CNC(=O)[C@H](Cc1ccccc1)NC(=O)[C@H](CC(N)=O)NC(=O)[C@@H]1CCCN1C(=O)[C@H](CO)NC(=O)[C@H](CO)NC(=O)[C@H](Cc1c[nH]cn1)NC(=O)[C@H](CCCNC(=N)N)NC(=O)[C@H](CC(C)C)NC(=O)[C@H](Cc1ccccc1)NC(=O)[C@H](CCC(=O)O)NC(=O)[C@H](C)NC(=O)[C@H](CC(C)C)NC(=O)[C@H](CCCNC(=N)N)NC(=O)[C@H](CCC(N)=O)NC(=O)[C@@H](NC(=O)[C@H](C)NC(=O)[C@@H]1CSSC[C@H](NC(=O)[C@@H](N)CCCCNC(=O)CC[C@H](NC(=O)CC[C@H](NC(=O)CCCCCCCCCCCCCCCCCCC(=O)O)C(=O)O)C(=O)O)C(=O)N[C@@H](CC(N)=O)C(=O)N[C@@H]([C@@H](C)O)C(=O)N[C@@H](C)C(=O)N[C@@H]([C@@H](C)O)C(=O)N1)[C@@H](C)O)C(=O)N1CCC[C@H]1C(=O)N[C@@H](CO)C(=O)N[C@@H](CO)C(=O)N[C@H](C(=O)N[C@@H](CC(N)=O)C(=O)N[C@H](C(=O)NCC(=O)N[C@@H](Cc1c[nH]cn1)C(=O)N[C@@H](CCC(=O)O)C(=O)N[C@H](C(=O)N[C@@H](Cc1ccc(O)cc1)C(N)=O)[C@@H](C)O)C(C)C)[C@@H](C)O)	525
K([γGlu-γGlu-C20 diacid])CNTATCATQRLAEFLRHSSPNFGAIPSSTNVGRETY-NH2 (disulfide 2-7; N-terminus assumed; SMILES CC[C@H](C)[C@H](NC(=O)[C@H](C)NC(=O)CNC(=O)[C@H](Cc1ccccc1)NC(=O)[C@H](CC(N)=O)NC(=O)[C@@H]1CCCN1C(=O)[C@H](CO)NC(=O)[C@H](CO)NC(=O)[C@H](Cc1c[nH]cn1)NC(=O)[C@H](CCCNC(=N)N)NC(=O)[C@H](CC(C)C)NC(=O)[C@H](Cc1ccccc1)NC(=O)[C@H](CCC(=O)O)NC(=O)[C@H](C)NC(=O)[C@H](CC(C)C)NC(=O)[C@H](CCCNC(=N)N)NC(=O)[C@H](CCC(N)=O)NC(=O)[C@@H](NC(=O)[C@H](C)NC(=O)[C@@H]1CSSC[C@H](NC(=O)[C@@H](N)CCCCNC(=O)CC[C@H](NC(=O)CC[C@H](NC(=O)CCCCCCCCCCCCCCCCCCC(=O)O)C(=O)O)C(=O)O)C(=O)N[C@@H](CC(N)=O)C(=O)N[C@@H]([C@@H](C)O)C(=O)N[C@@H](C)C(=O)N[C@@H]([C@@H](C)O)C(=O)N1)[C@@H](C)O)C(=O)N1CCC[C@H]1C(=O)N[C@@H](CO)C(=O)N[C@@H](CO)C(=O)N[C@H](C(=O)N[C@@H](CC(N)=O)C(=O)N[C@H](C(=O)NCC(=O)N[C@@H](CCCNC(=N)N)C(=O)N[C@@H](CCC(=O)O)C(=O)N[C@H](C(=O)N[C@@H](Cc1ccc(O)cc1)C(N)=O)[C@@H](C)O)C(C)C)[C@@H](C)O)	957

Stronger by IC50, values ahead:

IC50 [pM]	Binder
411	K([γGlu-γGlu-C20 diacid])CNTATCATQRLADFLRHSSPNFGAIPSSTNVGSDTY-NH2 (disulfide 2-7; N-terminus assumed; SMILES CC[C@H](C)[C@H](NC(=O)[C@H](C)NC(=O)CNC(=O)[C@H](Cc1ccccc1)NC(=O)[C@H](CC(N)=O)NC(=O)[C@@H]1CCCN1C(=O)[C@H](CO)NC(=O)[C@H](CO)NC(=O)[C@H](Cc1c[nH]cn1)NC(=O)[C@H](CCCNC(=N)N)NC(=O)[C@H](CC(C)C)NC(=O)[C@H](Cc1ccccc1)NC(=O)[C@H](CC(=O)O)NC(=O)[C@H](C)NC(=O)[C@H](CC(C)C)NC(=O)[C@H](CCCNC(=N)N)NC(=O)[C@H](CCC(N)=O)NC(=O)[C@@H](NC(=O)[C@H](C)NC(=O)[C@@H]1CSSC[C@H](NC(=O)[C@@H](N)CCCCNC(=O)CC[C@H](NC(=O)CC[C@H](NC(=O)CCCCCCCCCCCCCCCCCCC(=O)O)C(=O)O)C(=O)O)C(=O)N[C@@H](CC(N)=O)C(=O)N[C@@H]([C@@H](C)O)C(=O)N[C@@H](C)C(=O)N[C@@H]([C@@H](C)O)C(=O)N1)[C@@H](C)O)C(=O)N1CCC[C@H]1C(=O)N[C@@H](CO)C(=O)N[C@@H](CO)C(=O)N[C@H](C(=O)N[C@@H](CC(N)=O)C(=O)N[C@H](C(=O)NCC(=O)N[C@@H](CO)C(=O)N[C@@H](CC(=O)O)C(=O)N[C@H](C(=O)N[C@@H](Cc1ccc(O)cc1)C(N)=O)[C@@H](C)O)C(C)C)[C@@H](C)O, also called compound 2)
121	K([γGlu-γGlu-C20 diacid])CNTATCATQRLAEFLRHSSPNFGAIPSSTNVGPETY-NH2 (disulfide 2-7; N-terminus assumed; SMILES CC[C@H](C)[C@H](NC(=O)[C@H](C)NC(=O)CNC(=O)[C@H](Cc1ccccc1)NC(=O)[C@H](CC(N)=O)NC(=O)[C@@H]1CCCN1C(=O)[C@H](CO)NC(=O)[C@H](CO)NC(=O)[C@H](Cc1c[nH]cn1)NC(=O)[C@H](CCCNC(=N)N)NC(=O)[C@H](CC(C)C)NC(=O)[C@H](Cc1ccccc1)NC(=O)[C@H](CCC(=O)O)NC(=O)[C@H](C)NC(=O)[C@H](CC(C)C)NC(=O)[C@H](CCCNC(=N)N)NC(=O)[C@H](CCC(N)=O)NC(=O)[C@@H](NC(=O)[C@H](C)NC(=O)[C@@H]1CSSC[C@H](NC(=O)[C@@H](N)CCCCNC(=O)CC[C@H](NC(=O)CC[C@H](NC(=O)CCCCCCCCCCCCCCCCCCC(=O)O)C(=O)O)C(=O)O)C(=O)N[C@@H](CC(N)=O)C(=O)N[C@@H]([C@@H](C)O)C(=O)N[C@@H](C)C(=O)N[C@@H]([C@@H](C)O)C(=O)N1)[C@@H](C)O)C(=O)N1CCC[C@H]1C(=O)N[C@@H](CO)C(=O)N[C@@H](CO)C(=O)N[C@H](C(=O)N[C@@H](CC(N)=O)C(=O)N[C@H](C(=O)NCC(=O)N1CCC[C@H]1C(=O)N[C@@H](CCC(=O)O)C(=O)N[C@H](C(=O)N[C@@H](Cc1ccc(O)cc1)C(N)=O)[C@@H](C)O)C(C)C)[C@@H](C)O)
403	{C20 diacid-γGlu}-KCNTATCATQRLAEFLRHSSPNFGAIPSSTNVGKNTY-NH2 (disulfide 2-7; SMILES CC[C@H](C)[C@H](NC(=O)[C@H](C)NC(=O)CNC(=O)[C@H](Cc1ccccc1)NC(=O)[C@H](CC(N)=O)NC(=O)[C@@H]1CCCN1C(=O)[C@H](CO)NC(=O)[C@H](CO)NC(=O)[C@H](Cc1c[nH]cn1)NC(=O)[C@H](CCCNC(=N)N)NC(=O)[C@H](CC(C)C)NC(=O)[C@H](Cc1ccccc1)NC(=O)[C@H](CCC(=O)O)NC(=O)[C@H](C)NC(=O)[C@H](CC(C)C)NC(=O)[C@H](CCCNC(=N)N)NC(=O)[C@H](CCC(N)=O)NC(=O)[C@@H](NC(=O)[C@H](C)NC(=O)[C@@H]1CSSC[C@H](NC(=O)[C@H](CCCCN)NC(=O)CC[C@H](NC(=O)CCCCCCCCCCCCCCCCCCC(=O)O)C(=O)O)C(=O)N[C@@H](CC(N)=O)C(=O)N[C@@H]([C@@H](C)O)C(=O)N[C@@H](C)C(=O)N[C@@H]([C@@H](C)O)C(=O)N1)[C@@H](C)O)C(=O)N1CCC[C@H]1C(=O)N[C@@H](CO)C(=O)N[C@@H](CO)C(=O)N[C@H](C(=O)N[C@@H](CC(N)=O)C(=O)N[C@H](C(=O)NCC(=O)N[C@@H](CCCCN)C(=O)N[C@@H](CC(N)=O)C(=O)N[C@H](C(=O)N[C@@H](Cc1ccc(O)cc1)C(N)=O)[C@@H](C)O)C(C)C)[C@@H](C)O, also called compound 36)
